Measurements reported in patent US20260209362A1 (VIB VZW, published 2026).

T1: biotinylated recombinant human IL-12Rβ2 (human, UniProt Q99665 24-622, random biotinylated)
T1 construct: Recombinant protein produced in-house; also called hIL-12RB2; human IL-12RB2
T1 sequence: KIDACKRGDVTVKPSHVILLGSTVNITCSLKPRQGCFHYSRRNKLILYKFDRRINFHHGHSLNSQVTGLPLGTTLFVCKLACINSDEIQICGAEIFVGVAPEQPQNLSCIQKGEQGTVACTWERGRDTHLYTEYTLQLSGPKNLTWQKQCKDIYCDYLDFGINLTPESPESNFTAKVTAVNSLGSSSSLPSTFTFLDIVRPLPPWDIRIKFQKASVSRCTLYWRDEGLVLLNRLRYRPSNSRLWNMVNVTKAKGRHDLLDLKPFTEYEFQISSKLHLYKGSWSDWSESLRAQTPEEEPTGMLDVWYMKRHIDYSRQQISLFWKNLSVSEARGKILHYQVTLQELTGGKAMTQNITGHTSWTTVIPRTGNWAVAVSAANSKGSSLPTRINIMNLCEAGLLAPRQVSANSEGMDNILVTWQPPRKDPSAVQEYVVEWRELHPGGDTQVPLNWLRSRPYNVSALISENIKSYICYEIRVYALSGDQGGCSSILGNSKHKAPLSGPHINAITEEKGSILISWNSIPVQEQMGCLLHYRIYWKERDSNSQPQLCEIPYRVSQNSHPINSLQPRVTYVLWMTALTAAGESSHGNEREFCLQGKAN

T2: biotinylated recombinant mouse IL-12Rβ2 (mouse, UniProt P97378 24-637, random biotinylated)
T2 construct: Recombinant protein produced in-house; also called mIL-12RB2; mouse IL-12RB2
T2 sequence: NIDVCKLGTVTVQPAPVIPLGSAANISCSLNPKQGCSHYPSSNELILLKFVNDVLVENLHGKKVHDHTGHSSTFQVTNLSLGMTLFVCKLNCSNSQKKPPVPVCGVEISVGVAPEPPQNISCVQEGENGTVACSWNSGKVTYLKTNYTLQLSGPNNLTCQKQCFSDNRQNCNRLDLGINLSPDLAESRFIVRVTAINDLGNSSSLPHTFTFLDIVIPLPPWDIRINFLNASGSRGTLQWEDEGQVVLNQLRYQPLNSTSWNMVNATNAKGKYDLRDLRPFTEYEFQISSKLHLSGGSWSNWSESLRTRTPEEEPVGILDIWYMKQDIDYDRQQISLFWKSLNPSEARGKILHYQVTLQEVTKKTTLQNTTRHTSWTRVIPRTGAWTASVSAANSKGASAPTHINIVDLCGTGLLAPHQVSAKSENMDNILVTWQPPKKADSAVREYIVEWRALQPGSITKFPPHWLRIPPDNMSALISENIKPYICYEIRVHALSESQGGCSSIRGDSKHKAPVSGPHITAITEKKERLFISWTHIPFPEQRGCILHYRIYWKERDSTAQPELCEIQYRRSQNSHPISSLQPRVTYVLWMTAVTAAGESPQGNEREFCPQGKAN


Legend:
[1] = target: T1, biotinylated recombinant human IL-12Rβ2; experiment: BLI, P.E., off-rate ranking
[2] = target: T2, biotinylated recombinant mouse IL-12Rβ2; experiment: ELISA, P.E., biotinylated antigen
[3] = target: T1, biotinylated recombinant human IL-12Rβ2; experiment: ELISA, P.E., biotinylated antigen

Response [1]	koff [1]	ELISA mIL-12RB2/control [2]	ELISA hIL-12RB2/control [3]	Binder
0.205	0.00275 s⁻¹	0.999	23.7	anti-IL-12Rβ2 VHH clone 3CRHS142 (clone ID 20434) (VHH, not shown: small tags and cut ends, periplasmic extract) VHH: QVQLQESGGGLVQAGGSLRLSCVSSQTLVGIEAMGWYRQAPGKQRELVALITLNGGTFYADSVKGRFTISRDVAEHMLYLEMNSLNPEDTAVYFCVAGVESDNEEPTYWGQGTQVTVSS
0.279	0.00311 s⁻¹	1.07	12.5	anti-IL-12Rβ2 VHH clone 2CRHS4 (clone ID 20411) (VHH, not shown: small tags and cut ends, periplasmic extract) VHH: QVQLQESGGGLVQPGGSLRLSCVSSQTLVGIEAMGWYRQAPGKQRELVALITLNGGTFYADSVKGRFTISRDVAGHMLYLEMNSLNPEDTAVYFCVAGVESDNEEPTYWGQGTQVTVSS
0.416	0.00443 s⁻¹	1.19	18.3	anti-IL-12Rβ2 VHH clone 3CRHS67 (clone ID 20424) (VHH, not shown: small tags and cut ends, periplasmic extract) VHH: QVQLQESGGGLVQAGGSLTLSCVSSQTLVGIEAMGWYRQAPGKQRELVALITLNGGTFYADSVKGRFTISRDVAEHMLYLEMNSLNPEDTAVYFCVAGVESDNEEPTYWGQGTQVTVSS
0.282	0.00297 s⁻¹	1.03	24.5	anti-IL-12Rβ2 VHH clone 3CRHS156 (clone ID 20437) (VHH, not shown: small tags and cut ends, periplasmic extract) VHH: QVQLQESGGGLVQSGGSLRLSCVSSQTLVGIEAMGWYRQAPGKQRELVALITLNGGTFYADSVKGRFAISRDVAEHMLYLEMNSLNPEDTAVYFCVAGVESDNEEPTYWGQGTQVTVSS
0.149	0.00247 s⁻¹	1.06	23.2	anti-IL-12Rβ2 VHH clone 3CRHS166 (clone ID 20439) (VHH, not shown: small tags and cut ends, periplasmic extract) VHH: QVQLQESGGGLVQSGGSLRLSCVSSQTLVGIEAMGWYRQAPGKQRELVALITLNGGTFYADSVKGRFTISRDVAEHMLYLEMNSLNPEDTAVYFCVAGVESDNEEPTYWGQGTQVTVSS
0.352	0.00324 s⁻¹	1.07	4.98	anti-IL-12Rβ2 VHH clone 3CAHS142 (clone ID 20401) (VHH, not shown: small tags and cut ends, periplasmic extract) VHH: QVQLQESGGGLVQAGESLTLSCIASGVIKDYAMGWFRQAPGKEREFVAAISWSGVSIYYADSVKGRFTISRDNAKNTVYLQMNSLEPEDTAVYYCAGTEGAYTVAGGSTFGYDMDYWGKGTQVTVSS
0.493	0.00496 s⁻¹	1.64	3.8	anti-IL-12Rβ2 VHH clone 2CRH41 (clone ID 20365) (VHH, not shown: small tags and cut ends, periplasmic extract) VHH: QVQLQESGGGLVQPGGSLRLSCTASGFAFSSYWMYWVRQSPEKGFEWVSVVDTDGGITYYADSVKGRFTISRDNAKNTLYLQMNSLKPQDTALYYCARDRTTLEYTRTYYRTGQGTQVTVSS
0.339	0.00302 s⁻¹	0.927	3.58	anti-IL-12Rβ2 VHH clone 3CRHS163 (clone ID 20438) (VHH, not shown: small tags and cut ends, periplasmic extract) VHH: QVQLQESGGGLVQPGGSLRLSCTASGFAFSTYWMYWIRQSPEKGFEWVSVVNTGGDITYYADSVKGRFTISRDNAKNTLYLQMNSLKPEDTALYYCARDRTTMSYTRTYYRGGQGTQVTVSS
0.293	0.00324 s⁻¹	1	5.67	anti-IL-12Rβ2 VHH clone 3CAHS124 (clone ID 20400) (VHH, not shown: small tags and cut ends, periplasmic extract) VHH: QVQLQESGGGLVQPGGSLRLSCAASGRTINAYIMGWFRQAPGKEREFVAAVSGSGGSTYYADSVKGRFTISRDNAKNTVNLQMDNLRSEDTDVYYCAATYESVYLQNPGQYDYWGQGTQVTVSS
0.31	0.00369 s⁻¹	0.988	4.54	anti-IL-12Rβ2 VHH clone 3CAHS150 (clone ID 20403) (VHH, not shown: small tags and cut ends, periplasmic extract) VHH: QVQLQESGGGSVQAGGSLRLSCAASGRTINAYVMGWFRQAPGKEREFVAAISGSGGSTYYADSVKGRFTISRDNAKNTVNLQMDNLRSEDTDVYYCAATYESVYLQNPGQYDYWGQGTQVTVSS
0.515	0.00379 s⁻¹	0.945	5.87	anti-IL-12Rβ2 VHH clone 3CAHS170 (clone ID 20406) (VHH, not shown: small tags and cut ends, periplasmic extract) VHH: QVQLQESGGGLVQAGGSLRLSCVASGRTFSSYAMGWFRQGPGKEREFVAAISWSGVSIYYADSVKGRFTISRDNAKNTVYLQMNSLEPEDTAVYYCAGTEGAYTVAGGSTFGYDMDYWGKGTQVTVSS
0.759	0.00443 s⁻¹	1.11	9.56	anti-IL-12Rβ2 VHH clone 3CAH48 (clone ID 20360) (VHH, not shown: small tags and cut ends, periplasmic extract) VHH: QVQLQESGGGLVQAGGSLRLSCAASGRTFSSYAMGWFRQGPGKEREFVAAISWSGVSTYYADSVKGRFTISRDNAKNTVYLQMNSLRPEDTAVYYCAATEGAYTVAGGSTFGYDMDYWGKGTQVTVSS
0.482	0.00494 s⁻¹	1.05	3.84	anti-IL-12Rβ2 VHH clone 2CAH27 (clone ID 20354) (VHH, not shown: small tags and cut ends, periplasmic extract) VHH: QVQLQESGGGSVQSGGSLRLSCVASGRTFSSYAMGWFRQGPGKEREFVAAISWSGVSIYYADSVKGRFTISRDNAKNTVYLQMNSLEPEDTAVYYCAGTEGAYTVAGGSTFGYDMDYWGKGTQVTVSS
0.607	0.00419 s⁻¹	0.842	4.31	anti-IL-12Rβ2 VHH clone 3CAH32 (clone ID 20357) (VHH, not shown: small tags and cut ends, periplasmic extract) VHH: QVQLQESGGGLVQPGGSLRLSCAASGSILRINLMGWYRQVPGKQRELVAEMSTGGSTTYVDSVKGRFTISRDNAKNTVYLQMNSLKPEDTAVYYCNAKAWQLGRLENDDWGQGTQVTVSS
0.259	0.00405 s⁻¹	0.908	3.13	anti-IL-12Rβ2 VHH clone 3CRHS99 (clone ID 20427) (VHH, not shown: small tags and cut ends, periplasmic extract) VHH: QVQLQESGGGLVQPGGSLRLSCKASGFTFSTYAMSWVRQAPGKGLEWVSAINSGGLSTDYADSVEGRFTISRDDAKNMLFLQMNSLKAEDTARYYCAKYEDCSDYMCHRDRAGYWGQGTQVTVSS
0.297	0.00355 s⁻¹	1.03	10.2	anti-IL-12Rβ2 VHH clone 3CRHS106 (clone ID 20429) (VHH, not shown: small tags and cut ends, periplasmic extract) VHH: QVQLQESGGGLVQPGGSLRLSCKASGFTFSTYAMSWVRQAPGKGLEWVSAVNSGGLSTDYADSVEGRFTISRDDAKNMLFLQMNSLKPEDTARYYCAKYEDCSDYMCHRDRAGYWGQGTQVTVSS
0.523	0.00205 s⁻¹	1.04	5.16	anti-IL-12Rβ2 VHH clone 3CRH25 (clone ID 20378) (VHH, not shown: small tags and cut ends, periplasmic extract) VHH: QVQLQESGGGLVQAGDSLRLSCTASGHTFSRYTTIGWFRQAPGKDREFVAAIRWSGDITDYADAVKGRFTISRDNVKNTVYLQMNSLNPEDTAVYYCARGYSEYGVLSRNRGLYAYWGQGTQVTVSS
0.726	0.00428 s⁻¹	1.41	4.94	anti-IL-12Rβ2 VHH clone 3CRH64 (clone ID 20386) (VHH, not shown: small tags and cut ends, periplasmic extract) VHH: QVQLQESGGGLVQAGGSLRLSCTASGHTFSRYTTIGWFRQAPGKDREFVAAIRWSGDITDYADAVKGRFTISRDNVKNTVYLQTNSLNPEDTAVYYCARGYSEYGVLSRNRGLYAYWGQGTQVTVSS
0.551	0.00426 s⁻¹	1.02	6.37	anti-IL-12Rβ2 VHH clone 3CRHS77 (clone ID 20425) (VHH, not shown: small tags and cut ends, periplasmic extract) VHH: QVQLQESGGGLVQAGGSLRLSCTASGHTFSSYTTIGWFRQAPGKEREFVAAIGWSGDITDYADAVKGRFTISRHNVENTVYLQMNSLNPEDTAVYYCARGYSEYGVLSRNRGLYAYWGQGTQVTVSS
0.487	0.00453 s⁻¹	1.89	15.9	anti-IL-12Rβ2 VHH clone 3CRH59 (clone ID 20385) (VHH, not shown: small tags and cut ends, periplasmic extract) VHH: QVQLQESGGGLVQPGGSLRLSCTASGFAFSSYWMYWVRQTPGKGFEWVSVVNPGGEITYYGDSMEDRFTISRDNAKNTLYLQMNSLKPEDTGLYYCARDRTTIDYTRTYYRGGQGTQVTVSS
